One data set concerns the target T1, MBP-OsRFL (Oryza sativa L., UniProt Q0JAI1 1-389).
T1 sequence: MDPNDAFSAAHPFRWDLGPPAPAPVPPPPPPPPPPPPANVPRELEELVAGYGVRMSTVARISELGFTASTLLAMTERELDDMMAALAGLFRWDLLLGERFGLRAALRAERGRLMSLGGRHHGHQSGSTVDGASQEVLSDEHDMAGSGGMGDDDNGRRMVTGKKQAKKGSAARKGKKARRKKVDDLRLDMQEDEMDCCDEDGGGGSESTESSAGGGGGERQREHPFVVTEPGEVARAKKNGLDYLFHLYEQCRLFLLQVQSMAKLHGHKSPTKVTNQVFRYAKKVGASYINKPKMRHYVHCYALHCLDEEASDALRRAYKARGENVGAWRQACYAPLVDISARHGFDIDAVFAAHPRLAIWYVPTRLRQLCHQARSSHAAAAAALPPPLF
Put plainly: EMSA.

The target of the next data set is MBP-OsNLP3 (Oryza sativa L., UniProt Q5NB82 1-938). Put plainly: EMSA. (In general: In EMSA bound probe runs differently from free probe, usually more slowly.)
Chain of MBP-OsNLP3 (Q5NB82 whole entry): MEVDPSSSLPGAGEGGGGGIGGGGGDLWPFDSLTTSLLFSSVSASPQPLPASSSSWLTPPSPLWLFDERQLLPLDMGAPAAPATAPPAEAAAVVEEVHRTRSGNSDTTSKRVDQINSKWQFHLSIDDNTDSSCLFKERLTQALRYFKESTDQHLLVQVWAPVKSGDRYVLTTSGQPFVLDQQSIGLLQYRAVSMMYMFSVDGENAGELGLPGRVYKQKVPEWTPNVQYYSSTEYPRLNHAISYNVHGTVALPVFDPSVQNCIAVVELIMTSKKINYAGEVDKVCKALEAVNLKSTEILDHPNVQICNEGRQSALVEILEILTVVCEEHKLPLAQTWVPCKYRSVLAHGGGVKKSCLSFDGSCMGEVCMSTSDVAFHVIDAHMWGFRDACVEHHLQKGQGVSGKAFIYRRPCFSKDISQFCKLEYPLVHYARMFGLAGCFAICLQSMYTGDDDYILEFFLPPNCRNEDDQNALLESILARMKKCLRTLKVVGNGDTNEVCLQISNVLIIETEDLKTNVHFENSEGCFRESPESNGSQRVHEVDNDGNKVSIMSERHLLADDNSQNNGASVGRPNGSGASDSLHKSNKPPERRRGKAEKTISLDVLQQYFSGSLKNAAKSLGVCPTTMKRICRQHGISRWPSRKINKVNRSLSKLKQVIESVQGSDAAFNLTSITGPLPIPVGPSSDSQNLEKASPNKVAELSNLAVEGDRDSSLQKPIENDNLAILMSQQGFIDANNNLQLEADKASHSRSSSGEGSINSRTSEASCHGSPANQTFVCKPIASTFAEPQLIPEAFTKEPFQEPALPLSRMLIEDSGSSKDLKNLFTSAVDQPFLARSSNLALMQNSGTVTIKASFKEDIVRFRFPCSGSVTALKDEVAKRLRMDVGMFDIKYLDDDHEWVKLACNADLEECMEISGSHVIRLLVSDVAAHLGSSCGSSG

B1: OsMOC1 promoter probe (EMSA/OsMOC1) (dsDNA)
DNA 1: TGGTGTTACCACTGGCTTGATCA
DNA 2: TGATCAAGCCAGTGGTAACACCA
B1: the binding result with MBP-OsRFL is recorded as “binds”.

B2: OsRFL promoter NRE probe (EMSA/OsRFL-3) (dsDNA)
DNA 1: TAATACTGTTGTTTGATACTAATGAGTCAAGTTG
DNA 2: CAACTTGACTCATTAGTATCAAACAACAGTATTA
B2: the binding result in the data set with MBP-OsNLP3 is “binds”.

The record behind these values is article doi:10.1101/2023.02.28.530553.
